According to the supplement of paper PMC9732359:
± gives the uncertainty stated by the source.

Assay: protein stability index of a GFP-peptide fusion (yeast GPS) (PSI 1-4); higher = more stable; sorted into four equal gates, so the index is relative within each strain
Procedure, shortened: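 Tiled yeast protein peptides of 17 residues were each joined downstream of GFP, on plasmids that also express Cherry. The pooled library was maintained in yeast, and mid-log cultures in leucine-free medium were sorted into four equal gates on the GFP/Cherry ratio. Plasmids from every gate were amplified by PCR and sequenced on Illumina, with barcodes linking reads to strains. The protein stability index of a peptide is its gate-number-weighted read frequency summed over the gates.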

Sequence | protein stability index (doa10∆) | protein stability index (pdr5∆) | protein stability index (san1∆) | protein stability index (ubr1∆)
LYTLAQETEGTNRHTLA [SIR3] | 2.73 ± 0.077 | 2.09 ± 0.072 | 2.2 ± 0.084 | 2.52 ± 0.059
VPIERVAQLKPFFKYID [RPC37] | 2.54 ± 0.062 | 2.24 ± 0.054 | 2.34 ± 0.054 | 2.71 ± 0.052
SYSPTSPSYSPTSPNYS [RPO21] | 2.88 ± 0.065 | 2.96 ± 0.056 | 2.84 ± 0.054 | 3.066 ± 0.028
STSYHLNSTLESLYDLI [MED6] | 2.86 ± 0.12 | 2.62 ± 0.094 | 3 ± 0.084 | 2.51 ± 0.12
DKFRKACSSSGRETILS [SIR3] | 1.94 ± 0.042 | 2.08 ± 0.042 | 1.83 ± 0.073 | 2.64 ± 0.046
TENVAQARIILNHILEK [YGR119C/NUP57] | 2.58 ± 0.081 | 2.87 ± 0.08 | 3.14 ± 0.067 | 2.86 ± 0.061
KEGASTNWDDHAIIIFG [YMR153W/NUP53] | 2.86 ± 0.094 | 3.05 ± 0.075 | 3.27 ± 0.095 | 2.59 ± 0.059
DRQIINEKMQLLKDIFA [SIR4] | 2.25 ± 0.042 | 2.64 ± 0.054 | 2.31 ± 0.058 | 1.92 ± 0.047
LEIASSIDCLLILILVI [SWI1] | 1.98 ± 0.07 | 2.24 ± 0.046 | 2.34 ± 0.074 | 1.71 ± 0.035
SIHVNRVERSSRSTDNF [RRI1] | 3.32 ± 0.074 | 3.18 ± 0.069 | 3.03 ± 0.058 | 3.02 ± 0.051
QTSRGLFGNNNTNNINN [YGL172W/NUP49] | 3.1 ± 0.18 | 3.04 ± 0.13 | 3.13 ± 0.16 | 3.14 ± 0.16
PDFEKLLPFVKGNVGFV [RPP0] | – | – | – | 1.89 ± 0.19
RELEQIKPKIALQDKEI [SNF12] | 3.15 ± 0.18 | 3.35 ± 0.17 | – | 3.05 ± 0.13
VGRFSTISSADFIQNVG [ECM29] | 3.16 ± 0.1 | 2.65 ± 0.079 | 3.03 ± 0.08 | 2.72 ± 0.088
DEFIKTHEDLPKEVDGL [IRR1] | 3.2 ± 0.081 | 3.29 ± 0.094 | 3.04 ± 0.078 | 3.21 ± 0.067
HKKDRLQYLPLYAVSTF [SIR4] | 1.59 ± 0.035 | 1.66 ± 0.035 | 1.35 ± 0.054 | 1.89 ± 0.037
TEDILKEISTRVFNAKD [YCS4] | 3.11 ± 0.13 | 3.17 ± 0.095 | 3.25 ± 0.095 | 3.29 ± 0.092
ITSFLLSKMENVNLDDY [NAS6] | 1.95 ± 0.11 | 1.54 ± 0.052 | 1.87 ± 0.12 | 1.85 ± 0.057
IVISLKNTMFEKSDALV [SMC1] | 2.42 ± 0.071 | 2.36 ± 0.062 | 2.55 ± 0.059 | 2.47 ± 0.042
RLERRINLTKVTQKDIC [CSI1] | 2.88 ± 0.079 | 2.82 ± 0.13 | 3.18 ± 0.065 | 3.29 ± 0.12
QQKQQQQQQQHQQQQQQ [SNF5] | 2.73 ± 0.033 | 2.8 ± 0.03 | 2.81 ± 0.029 | 2.769 ± 0.026
VYESEMEQCKQRYQDLS [YIL149C/MLP2] | 3.27 ± 0.09 | 3.36 ± 0.11 | 3.03 ± 0.081 | 3.24 ± 0.094
YYNPQAGTKITICIELK [RGR1] | 2.16 ± 0.13 | 2.24 ± 0.23 | 2.1 ± 0.13 | 2.48 ± 0.1
VKARHGGCDYIFSLLTG [CYT1] | 2.88 ± 0.1 | 3.02 ± 0.12 | 2.61 ± 0.086 | 2.72 ± 0.053
KNDLFVIWSEDNDEKLI [RPO21] | 2.83 ± 0.077 | 2.55 ± 0.096 | 3.1 ± 0.045 | 2.44 ± 0.089
DKPYLLRIVTHLAICLD [YDL116W/NUP84] | 1.33 ± 0.078 | 1.28 ± 0.08 | 1.32 ± 0.13 | 1.58 ± 0.058
ARQQVAQQLRNQQQQQQ [GAL11] | 2.73 ± 0.064 | 3.2 ± 0.13 | 2.85 ± 0.097 | 2.92 ± 0.076

Sequence | protein stability index (doa10∆) | protein stability index (pdr5∆) | protein stability index (san1∆) | protein stability index (ubr1∆)
LARACAAQTNATFLKLA [RPT5] | 2.76 ± 0.13 | 2.93 ± 0.089 | 2.93 ± 0.099 | 2.6 ± 0.27
TNLISKISLLRPSFQNN [SWP82] | 2.52 ± 0.05 | 2.69 ± 0.05 | 2.53 ± 0.071 | 2.72 ± 0.064
RVNLSENTPEPDLPALE [SMC4] | 2.26 ± 0.091 | 2.32 ± 0.074 | 3.1 ± 0.086 | 2.83 ± 0.11
SPEESKARSPGIAKPNA [SIR4] | 3.48 ± 0.075 | 3.42 ± 0.09 | 3.09 ± 0.091 | 3.38 ± 0.066
MVHREFLKLANGGKFSK [RGR1] | 3.22 ± 0.08 | 2.74 ± 0.074 | 3.14 ± 0.12 | 2.91 ± 0.07
NDDELNKLLGNVTIAQG [HTA1] | 3.31 ± 0.12 | 3.5 ± 0.12 | 3.48 ± 0.064 | 3.34 ± 0.078
KYAQDGAGIERELARIK [RPL3] | 3.54 ± 0.2 | 3.46 ± 0.16 | – | –
HVDSLIEDFVDGIANSK [SRB7] | 3.06 ± 0.1 | 3.3 ± 0.077 | 3.04 ± 0.059 | 3.08 ± 0.057
VDASPNDVTRRTVKNIL [CSL4] | 3.19 ± 0.085 | 3.18 ± 0.085 | 3.1 ± 0.078 | 3.3 ± 0.063
YRCFAQLELRQLNASIS [RRI2] | 3.06 ± 0.2 | 3.24 ± 0.2 | 3.12 ± 0.16 | 3.39 ± 0.17
YNLLVKISLHKREYLEV [RPN5] | 1.5 ± 0.1 | 1.21 ± 0.12 | 1.34 ± 0.17 | 1.43 ± 0.092
LISRMIFIATQLEKKIR [BRR2] | 1.75 ± 0.075 | 1.9 ± 0.059 | 1.28 ± 0.12 | 2.03 ± 0.054
EIRAKEYKTSSDSLGPD [SRB2] | 2.81 ± 0.087 | 2.87 ± 0.058 | 3.04 ± 0.053 | 2.98 ± 0.06
NAKKRVFKTHSYRGVDL [RPS15] | 2.93 ± 0.053 | 2.15 ± 0.033 | 3.16 ± 0.039 | 3.32 ± 0.047
PDLDTECFISMQSTSPA [SWI1] | 2.68 ± 0.18 | 3.02 ± 0.13 | 2.32 ± 0.17 | 2.93 ± 0.07
KIPLFTFAKSKNYSRPS [SIR4] | 2.39 ± 0.092 | 2.12 ± 0.081 | 1.74 ± 0.1 | 2.42 ± 0.064
PKYRDNLATWYHSAGGR [SSN3] | 2.95 ± 0.066 | 3.28 ± 0.08 | 3.1 ± 0.059 | 2.99 ± 0.059
GDFGGWFCPCHGSHYDI [RIP1] | 2.87 ± 0.15 | 3.11 ± 0.078 | 3 ± 0.058 | 3.18 ± 0.082
TRELAEEGYSGVEVRVT [RPS3] | 2.4 ± 0.059 | 3 ± 0.073 | 2.67 ± 0.053 | 2.86 ± 0.04
CVKLTVRSLLEVVQTGA [PRE6] | 2.44 ± 0.3 | – | – | 2.27 ± 0.29
GVLKPDITFFGEALPNK [SIR2] | 3.34 ± 0.08 | 3.19 ± 0.083 | 3.16 ± 0.091 | 3.35 ± 0.085
EETPSKTNKISILKRHS [NUT1] | – | – | – | 3.1 ± 0.17
RELARIKKYASVVRVLV [RPL3] | 1.32 ± 0.09 | 1.17 ± 0.12 | 1.13 ± 0.18 | 1.2 ± 0.11
ANIFRIHSKSMSVERGI [RPT1] | 3.16 ± 0.11 | 3.01 ± 0.14 | 3.18 ± 0.13 | 2.9 ± 0.13
PDPRSTVIPEDEEIIQL [RPO21] | 2.65 ± 0.081 | 2.75 ± 0.087 | 2.79 ± 0.077 | 2.66 ± 0.063
AIRADPAFKPTEKKFTK [RPL5] | 3.11 ± 0.26 | 3.15 ± 0.3 | 3.18 ± 0.2 | 3.2 ± 0.24
ILGELKRVKSYMDKAKQ [LRP1] | 2.23 ± 0.079 | 2.35 ± 0.082 | 1.89 ± 0.12 | 2.36 ± 0.065
